The text below walks through data of IntAct's records for PubMed 28712572.

Sequence of gbrap_human GABARAP (O95166 whole entry): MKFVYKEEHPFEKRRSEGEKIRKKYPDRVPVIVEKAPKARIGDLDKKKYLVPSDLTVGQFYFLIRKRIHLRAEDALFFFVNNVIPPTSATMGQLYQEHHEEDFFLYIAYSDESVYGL

This assay has as its target gbrap_human GABARAP (UniProt O95166).
For “Pericentriolar material 1 protein (Homo sapiens), Q15154 F1963R”, the “effect of a mutation on the interaction” value is “disrupting interaction strength”.
The entry for “Pericentriolar material 1 protein (Homo sapiens), Q15154 F1963S” is “disrupting interaction strength”; for “Pericentriolar material 1 protein (Homo sapiens), Q15154 F1963T” it is “disrupting interaction strength”.
In the case of “Pericentriolar material 1 protein (Homo sapiens), Q15154 F1963V” it was “disrupting interaction strength”.
In the case of “Pericentriolar material 1 protein (Homo sapiens), Q15154 F1963W” it was “with no effect”; in that of “Pericentriolar material 1 protein (Homo sapiens), Q15154 F1963Y”, “decreasing interaction strength”.
For “Pericentriolar material 1 protein (Homo sapiens), Q15154 G1952A”, the “effect of a mutation on the interaction” value is “with no effect”.
As to “Pericentriolar material 1 protein (Homo sapiens), Q15154 G1952C”, the “effect of a mutation on the interaction” value is on record as “with no effect”.
In the case of “Pericentriolar material 1 protein (Homo sapiens), Q15154 G1952D” it was “with no effect”; in that of “Pericentriolar material 1 protein (Homo sapiens), Q15154 G1952E”, “with no effect”; in that of “Pericentriolar material 1 protein (Homo sapiens), Q15154 G1952F”, “with no effect”.
With “Pericentriolar material 1 protein (Homo sapiens), Q15154 G1952H”, the “effect of a mutation on the interaction” value is listed as “with no effect”.
Take “Pericentriolar material 1 protein (Homo sapiens), Q15154 G1952I”: the “effect of a mutation on the interaction” value is recorded as “with no effect”.
The entry for “Pericentriolar material 1 protein (Homo sapiens), Q15154 G1952K” is “with no effect”; for “Pericentriolar material 1 protein (Homo sapiens), Q15154 G1952L” it is “with no effect”; for “Pericentriolar material 1 protein (Homo sapiens), Q15154 G1952M” it is “with no effect”.
The entry for “Pericentriolar material 1 protein (Homo sapiens), Q15154 G1952N” is “with no effect”.
In the case of “Pericentriolar material 1 protein (Homo sapiens), Q15154 G1952P” it was “with no effect”; in that of “Pericentriolar material 1 protein (Homo sapiens), Q15154 G1952Q”, “with no effect”; in that of “Pericentriolar material 1 protein (Homo sapiens), Q15154 G1952R”, “with no effect”.
As for “Pericentriolar material 1 protein (Homo sapiens), Q15154 G1952S”, the “effect of a mutation on the interaction” value is given as “with no effect”.
In the case of “Pericentriolar material 1 protein (Homo sapiens), Q15154 G1952T” it was “with no effect”.
The entry for “Pericentriolar material 1 protein (Homo sapiens), Q15154 G1952V” is “with no effect”; for “Pericentriolar material 1 protein (Homo sapiens), Q15154 G1952W” it is “with no effect”.
In the case of “Pericentriolar material 1 protein (Homo sapiens), Q15154 G1952Y” it was “with no effect”; in that of “Pericentriolar material 1 protein (Homo sapiens), Q15154 I1954A”, “with no effect”.
In the case of “Pericentriolar material 1 protein (Homo sapiens), Q15154 I1954C”, the “effect of a mutation on the interaction” value was “with no effect”.
In the case of “Pericentriolar material 1 protein (Homo sapiens), Q15154 I1954D” it was “with no effect”; in that of “Pericentriolar material 1 protein (Homo sapiens), Q15154 I1954E”, “with no effect”; in that of “Pericentriolar material 1 protein (Homo sapiens), Q15154 I1954F”, “with no effect”.
The entry for “Pericentriolar material 1 protein (Homo sapiens), Q15154 I1954G” is “with no effect”; for “Pericentriolar material 1 protein (Homo sapiens), Q15154 I1954H” it is “with no effect”.
The entry for “Pericentriolar material 1 protein (Homo sapiens), Q15154 I1954K” is “with no effect”; for “Pericentriolar material 1 protein (Homo sapiens), Q15154 I1954L” it is “with no effect”.
Consider “Pericentriolar material 1 protein (Homo sapiens), Q15154 I1954M”, for which the “effect of a mutation on the interaction” value is recorded as “with no effect”.
In the case of “Pericentriolar material 1 protein (Homo sapiens), Q15154 I1954N” it was “with no effect”.
Consider “Pericentriolar material 1 protein (Homo sapiens), Q15154 I1954P”, for which the “effect of a mutation on the interaction” value is given as “with no effect”.
In the case of “Pericentriolar material 1 protein (Homo sapiens), Q15154 I1954Q” it was “with no effect”.
Consider “Pericentriolar material 1 protein (Homo sapiens), Q15154 I1954R”, for which the “effect of a mutation on the interaction” value is on record as “with no effect”.
The entry for “Pericentriolar material 1 protein (Homo sapiens), Q15154 I1954S” is “with no effect”; for “Pericentriolar material 1 protein (Homo sapiens), Q15154 I1954T” it is “with no effect”; for “Pericentriolar material 1 protein (Homo sapiens), Q15154 I1954V” it is “decreasing interaction strength”.
The entry for “Pericentriolar material 1 protein (Homo sapiens), Q15154 I1954W” is “with no effect”.
The entry for “Pericentriolar material 1 protein (Homo sapiens), Q15154 I1954Y” is “with no effect”.
Turning to “Pericentriolar material 1 protein (Homo sapiens), Q15154 I1975A”, the “effect of a mutation on the interaction” value is given as “with no effect”.
In the case of “Pericentriolar material 1 protein (Homo sapiens), Q15154 I1975C” it was “with no effect”.
“Pericentriolar material 1 protein (Homo sapiens), Q15154 I1975D”: the “effect of a mutation on the interaction” value was “with no effect”.
In the case of “Pericentriolar material 1 protein (Homo sapiens), Q15154 I1975E” it was “with no effect”; in that of “Pericentriolar material 1 protein (Homo sapiens), Q15154 I1975F”, “with no effect”; in that of “Pericentriolar material 1 protein (Homo sapiens), Q15154 I1975G”, “with no effect”.
In the case of “Pericentriolar material 1 protein (Homo sapiens), Q15154 I1975H” it was “with no effect”.
The entry for “Pericentriolar material 1 protein (Homo sapiens), Q15154 I1975K” is “with no effect”; for “Pericentriolar material 1 protein (Homo sapiens), Q15154 I1975L” it is “with no effect”; for “Pericentriolar material 1 protein (Homo sapiens), Q15154 I1975M” it is “with no effect”.
Regarding “Pericentriolar material 1 protein (Homo sapiens), Q15154 I1975N”, the “effect of a mutation on the interaction” value is listed as “with no effect”.
The entry for “Pericentriolar material 1 protein (Homo sapiens), Q15154 I1975P” is “with no effect”; for “Pericentriolar material 1 protein (Homo sapiens), Q15154 I1975Q” it is “with no effect”; for “Pericentriolar material 1 protein (Homo sapiens), Q15154 I1975R” it is “with no effect”.
On to “Pericentriolar material 1 protein (Homo sapiens), Q15154 I1975S”, for which the “effect of a mutation on the interaction” value was “with no effect”.
The entry for “Pericentriolar material 1 protein (Homo sapiens), Q15154 I1975T” is “with no effect”; for “Pericentriolar material 1 protein (Homo sapiens), Q15154 I1975V” it is “with no effect”; for “Pericentriolar material 1 protein (Homo sapiens), Q15154 I1975W” it is “with no effect”.
Take “Pericentriolar material 1 protein (Homo sapiens), Q15154 I1975Y”: the “effect of a mutation on the interaction” value was “with no effect”.
The entry for “Pericentriolar material 1 protein (Homo sapiens), Q15154 K1957A” is “with no effect”.
